Values quoted from earlier work, collected in PMC6614495.

Molecular target: Amyloid beta (Homo sapiens) (UniProt P05067)
Sequence (P05067 672-711): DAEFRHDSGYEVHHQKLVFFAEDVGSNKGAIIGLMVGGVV

Clusterin (ApoJ), sequence (P10909 23-227): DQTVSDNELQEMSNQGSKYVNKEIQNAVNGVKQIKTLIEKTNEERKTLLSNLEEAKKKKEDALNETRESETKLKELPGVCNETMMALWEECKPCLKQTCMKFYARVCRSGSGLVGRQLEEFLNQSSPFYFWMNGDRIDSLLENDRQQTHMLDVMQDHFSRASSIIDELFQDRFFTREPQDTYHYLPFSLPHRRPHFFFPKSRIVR
Clusterin (ApoJ), sequence (P10909 228-449): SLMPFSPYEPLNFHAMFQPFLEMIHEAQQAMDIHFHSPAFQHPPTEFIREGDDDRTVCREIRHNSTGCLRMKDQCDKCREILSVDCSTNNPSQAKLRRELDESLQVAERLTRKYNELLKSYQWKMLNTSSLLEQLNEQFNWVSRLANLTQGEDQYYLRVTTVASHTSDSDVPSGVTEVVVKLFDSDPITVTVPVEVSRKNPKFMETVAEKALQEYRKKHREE

- Kd: 2 nM
Substance: Clusterin (ApoJ) (from UniProt P10909)
